Test [1] deals with TGFBIp A546T (residues 45–632) (human) (UniProt Q15582). Nature of the test: SEC; calibrated SEC, Superdex 200 Increase 10/300 GL in PBS; TGFBIp at 7 μM.
The target in test [2] is TGFBIp R124H (residues 45–632) (human) (UniProt Q15582). Nature of the test: in-line SEC-SAXS; in-line Superdex Increase 200 3.2/300 in 20 mM Tris, 150 mM NaCl, pH 7.4; ~0.5 to 1 mg/ml; rigid-body modeling. A general note: In gel filtration, larger molecules generally elute earlier.
For test [3] the target is unchanged. The test is described as follows: SEC; calibrated SEC, Superdex 200 Increase 10/300 GL in PBS; TGFBIp at 7 μM.
For test [4], the target named is TGFBIp R555W (residues 45–632) (human) (UniProt Q15582). The test is described as follows: in-line SEC-SAXS; in-line Superdex Increase 200 3.2/300 in 20 mM Tris, 150 mM NaCl, pH 7.4; ~0.5 to 1 mg/ml; rigid-body modeling.
Test [5] has the same target. Nature of the test: SEC; calibrated SEC, Superdex 200 Increase 10/300 GL in PBS; TGFBIp at 7 μM.
The target of test [6] is wildtype transforming growth factor-β–induced protein (TGFBIp), residues 45–632 (human) (UniProt Q15582). The test is described as follows: in-line SEC-SAXS; in-line Superdex Increase 200 3.2/300 in 20 mM Tris, 150 mM NaCl, pH 7.4; ~0.5 to 1 mg/ml; rigid-body modeling.
The target is the same in test [7]. Nature of the test: SEC; calibrated SEC, Superdex 200 Increase 10/300 GL in PBS; TGFBIp at 7 μM.

As usually defined, the stoichiometry N is a count of units in the complex or per binding partner.

In turn, “TGFBIp A546T (residues 45–632) (from UniProt Q15582 45-632) (domain or fragment)” had a stoichiometry N in test [1] of 2. Regarding “TGFBIp R124H (residues 45–632) (from UniProt Q15582 45-632) (domain or fragment)”, the stoichiometry N in test [2] and in test [3] was 2 in each case.

With “TGFBIp R555W (residues 45–632) (from UniProt Q15582 45-632) (domain or fragment)”, the stoichiometry N in test [4] and in test [5] was 2 in each case.

Regarding “wildtype transforming growth factor-β–induced protein (TGFBIp), residues 45–632 (from UniProt Q15582 45-632) (domain or fragment)”, the stoichiometry N in test [6] and in test [7] was 2 each time.
